Experimental findings from publication PMC9733406 (ACS nano, 2022) are described below.

Assay [1] concerns the target MMP-2 targeting peptide (FITC-AA-…). Description: MST.
The test system of a further assay is bovine serum albumin. Description: MicroScale Thermophoresis. To be noted: MST, FITC-labelled peptide. The assay is classed as binding.

Residues, ends and D or L forms follow the SMILES beside them.

Take “recombinant human MMP-2 (from UniProt P08253 30-660) (enzyme)”: the Kd in assay [1] came out at 82.8 nM. For `CC[C@H](C)[C@H](NC(=O)[C@H](CC(=O)O)NC(=O)[C@H](CC(C)C)NC(=O)[C@H](Cc1ccccc1)NC(=O)[C@H](CCC(=O)O)NC(=O)[C@H](CCC(N)=O)NC(=O)[C@H](CCCCN)NC(=O)[C@@H]1CCCN1C(=O)[C@H](C)NC(=O)[C@H](C)NC(=O)CNC(=O)[C@H](CCCNC(=N)N)NC(=O)[C@H](C)NC(=O)[C@H](C)NC(=S)Nc1ccc2c(c1)C(=O)OC21c2ccc(O)cc2Oc2cc(O)ccc21)C(=O)N[C@@H](CCC(=O)O)C(N)=O` [MMP-2 targeting peptide] (HELM PEPTIDE1{[O=C1OC2(c3ccc(O)cc3Oc3cc(O)ccc32)c2ccc(NC(=S)[*:2])cc21].A.A.R.G.A.A.P.K.Q.E.F.L.D.I.E.[am]}$$$$V2.0), the “nonspecific binding to bovine serum albumin” value in the assay on bovine serum albumin is on record as “does not bind nonspecifically”.
